Experiment [1] concerns the target H5-Strep-tag (Strep-tag II-fused haemagglutinin H5 ectodomain of A/duck/Viet Nam/TG24-01/2005 (H5N1) (influenza A virus A/duck/Viet Nam/TG24-01/2005 (H5N1) | not stated)). The experiment in a line: SEC.
The target is the same in experiment [2]. The experiment in a line: cross-linking.

What is called stoichiometry N is a count of units in the complex or per binding partner. Regarding “H5-Strep-tag (Strep-tag II-fused haemagglutinin H5 ectodomain of A/duck/Viet Nam/TG24-01/2005 (H5N1)”, the stoichiometry N in experiment [1] and in experiment [2] was 3 throughout.

The values above are taken from publication PMC6110258.
